Read-outs that look alike come from different tables or passages of the source.
What was measured:
[1] = Stability testing of peptides at pH 4.5 (sodium acetate buffer), HPLC Method B; type: physicochemical
Experimental: (§1) Analytical high performance liquid chromatography (HPLC) was performed on a Dionex UltiMate 3000 HPLC system with a Bruker amazon SL ion trap mass spectrometer and detection by UV (diode array detector, 214, 254, and 280 nm) and electrospray ionization (ESI) MS using a Penomenex Kinetex C18 column (50×3.0 mm, 2.6 μm particle size, 100 Åpore size) and a Penomenex Kinetex Biphenyl column (50×4.6 mm, 2.6 μm particle size, 100 Åpore size). A gradient of H2O/CH3CN/0.05% HCOOH was used at a flow rate of 1.5 mL/min.
Method B: Detection at 214 nm
For the peptides stored in sodium acetate buffer (pH 4.5, 100 mM) the solutions were analyzed by HPLC (analytical HPLC Method B) after 0 h, and 1 day incubation at 4° C. and 23° C.
(§2) The “% Purity” at each time point is defined by the % Relative purity at time point “n” (n=1 day, 7 days, 14 days in pH 7.4 PBS and 1 day at pH 4.5 NaAc) in relation to the % Relative purity at t0 following the equation:
% Purity at tn=[(% Relative purity tn)×100)]/% Relative purity t0
Samples were incubated for 1 day at 23° C. and 4° C. and were analyzed using HPLC Method B.

[2] = Stability testing of peptides at pH 7.4 (PBS), HPLC Method B; type: physicochemical
Experimental: as §1
Method B: Detection at 214 nm column: Penomenex Kinetex Biphenyl column (50×4.6 mm, 2.6 μm particle size, 100 Åpore size) solvent: H2O+0.05% HCOOH: CH3CN+0.05% HCOOH (flow 1.5 ml/min) […]
(§3) For stability testing, 500 μmol pure compound was dissolved in 1 mL PBS buffer (pH 7.4), or 1 mL sodium acetate buffer (pH 4.5, 100 mM). For the peptides stored in PBS, the solutions were stored for 14 days at 4° C. and 23° C. At 0 h, 1 day, 7 days and 14 days, the solutions were analyzed by HPLC (analytical HPLC Method A and Method B).
as §2
(§4) % Purity at tn=[(% Relative purity tn)×100)]/% Relative purity t0 […]
Samples were incubated up to 14 days at 23° C. and 4° C. and were analyzed using HPLC Method B.

[3] = Stability testing of peptides at pH 7.4 (PBS), HPLC Method A; type: physicochemical
Experimental: as §1
Method A: Detection at 214 nm column: Penomenex Kinetex C18 (50×3.0 mm, 2.6 μm particle size, 100 Åpore size) solvent: H2O+0.05% HCOOH: CH3CN+0.05% HCOOH (flow 1.5 ml/min) […]
as §3, §2, §4
Samples were incubated up to 14 days at 23° C. and 4° C. and were analyzed using HPLC Method A.

[4] = in vivo; parameters: species or system Sprague Dawley rats; settings: rat
Experimental: Sprague Dawley rats (obtained from Taconic, n=22, male, healthy, weight 287±25 g) were used for ex vivo organ distribution assessment of biodistribution and dosimetry.
Five MBq of [^68Ga]Ga-1 (n=10) (corresponding to 5-10 μg) in phosphate-buffered saline (PBS, pH 7.4) was injected intravenously as a bolus to conscious rats. The animals were euthanized by a CO2—O2 mixture 10, 20, 40, 60 and 120 minutes post-injection. The radioactivity of the excised organs was measured in a gamma counter. Samples from blood, heart, lung, liver, spleen, adrenal glands, kidneys, intestines, with or without contents, muscle, testis, bone, brain, pancreas, urine bladder and bone marrow were collected. The remaining carcass was also measured in order to monitor the radioactivity elimination and recovery. The radioactivity readings were decay-corrected to the time of the injection, and the results were expressed as standardized uptake values (SUV).
The biodistribution of [^68Ga]Ga-1 ([^68Ga]Ga—NH—(CH2CH2O)2—CH2—C(O)-LRELHLNNN—OH) was carried out as described above.

[5] = mouse, in vivo; cited from earlier work
[6] = rat, in vivo; cited from earlier work
[7] = male, Sprague Dawley, iv, 5 MBq, total radioactivity

CC(C)C[C@H](NC(=O)COCCOCCNC(=O)CN1CCN(CC(=O)O)CCN(CC(=O)O)CCN(CC(=O)O)CC1)C(=O)N[C@@H](CCCNC(=N)N)C(=O)N[C@@H](CCC(=O)O)C(=O)N[C@@H](CC(C)C)C(=O)N[C@@H](Cc1c[nH]cn1)C(=O)N[C@@H](CC(C)C)C(=O)N[C@@H](CC(N)=O)C(=O)N[C@@H](CC(N)=O)C(=O)N[C@@H](CC(N)=O)C(=O)O [Compound 1, DOTA-NH—(CH2CH2O)2—CH2—C(O)-L-R-E-L-H-L-N—N—N—OH]
% Purity after 1 day ([1]; 4° C.): >95% | % Purity after 1 day ([1]; 23° C.): >96% | % Purity after 1 day ([2]; 4° C.): 100% | % Purity after 7 days ([2]; 4° C.): >98% | % Purity after 14 days ([2]; 4° C.): >96% | % Purity after 1 day ([2]; 23° C.): >99% | % Purity after 7 days ([2]; 23° C.): >98% | % Purity after 14 days ([2]; 23° C.): >97% | % Purity after 1 day ([3]; 4° C.): >99% | % Purity after 7 days ([3]; 4° C.): >99% | % Purity after 14 days ([3]; 4° C.): >99% | % Purity after 1 day ([3]; 23° C.): >99% | % Purity after 7 days ([3]; 23° C.): >98% | % Purity after 14 days ([3]; 23° C.): >97%

CC(C)C[C@H](NC(=O)COCCOCCNC(=O)CN1CCN(CC(=O)O)CCN(CC(=O)O)CCN(CC(=O)O)CC1)C(=O)N[C@@H](CCCNC(=N)N)C(=O)N[C@@H](CCC(=O)O)C(=O)N[C@@H](CC(C)C)C(=O)N[C@@H](Cc1c[nH]cn1)C(=O)N[C@@H](CC(C)C)C(=O)N[C@@H](CC(N)=O)C(=O)N[C@@H](CC(N)=O)C(=O)N[C@@H](CC(N)=O)C(=O)O [[^68Ga]Ga-1, [^68Ga]Ga-DOTA-NH—(CH2CH2O)2—CH2—C(O)-LRELHLNNN—OH, metal not drawn]
SUV at 1 h [4, 7]: < 1 SUV | SUV at 2 h [4, 7]: 1 SUV | SUV Kidney [4]: 1.7 | SUV Liver [4]: 0.7

DOTA-L-R-E-L-H-L-N—N—N—OH [Compound 12]
% Purity after 1 day ([1]; 4° C.): >98% | % Purity after 1 day ([1]; 23° C.): >98% | % Purity after 1 day ([2]; 4° C.): >99% | % Purity after 7 days ([2]; 4° C.): >99% | % Purity after 1 day ([2]; 23° C.): >99% | % Purity after 7 days ([2]; 23° C.): >95% | % Purity after 1 day ([3]; 4° C.): >99% | % Purity after 7 days ([3]; 4° C.): >99% | % Purity after 1 day ([3]; 23° C.): >99% | % Purity after 7 days ([3]; 23° C.): >96%

DOTA-NH—(CH2CH2O)2—CH2—C(O)-L-R-E-L-H—V-N—N—N—OH [Compound 6]
% Purity after 1 day ([1]; 4° C.): >99% | % Purity after 1 day ([1]; 23° C.): >99% | % Purity after 1 day ([2]; 4° C.): >99% | % Purity after 7 days ([2]; 4° C.): >99% | % Purity after 1 day ([2]; 23° C.): >99% | % Purity after 7 days ([2]; 23° C.): >99% | % Purity after 1 day ([3]; 4° C.): >99% | % Purity after 7 days ([3]; 4° C.): >99% | % Purity after 1 day ([3]; 23° C.): 100% | % Purity after 7 days ([3]; 23° C.): >99%

DOTA-NH—(CH2CH2O)3—CH2—C(O)-L-R-E-L-H-L-N—N—N—OH [Compound 11]
% Purity after 1 day ([1]; 4° C.): >99% | % Purity after 1 day ([1]; 23° C.): >98% | % Purity after 1 day ([2]; 4° C.): >99% | % Purity after 7 days ([2]; 4° C.): >99% | % Purity after 1 day ([2]; 23° C.): >99% | % Purity after 7 days ([2]; 23° C.): >99% | % Purity after 1 day ([3]; 4° C.): >99% | % Purity after 7 days ([3]; 4° C.): >97% | % Purity after 1 day ([3]; 23° C.): >99% | % Purity after 7 days ([3]; 23° C.): >96%

H2N-L-R-E-L-H-L-N—N—N—K(DOTA-NH—(CH2CH2O)2—CH2—C(O))—NH2 [Compound 13]
% Purity after 1 day ([1]; 4° C.): >99% | % Purity after 1 day ([1]; 23° C.): >99% | % Purity after 1 day ([2]; 4° C.): >99% | % Purity after 7 days ([2]; 4° C.): >99% | % Purity after 1 day ([2]; 23° C.): >99% | % Purity after 7 days ([2]; 23° C.): >99% | % Purity after 1 day ([3]; 4° C.): 100% | % Purity after 7 days ([3]; 4° C.): 100% | % Purity after 1 day ([3]; 23° C.): 100% | % Purity after 7 days ([3]; 23° C.): 100%

[^68Ga]Ga-DOTA-CBP8 [Comparative Tracer 1]
SUV Kidney [5]: 10 | SUV Liver [5]: 0.4

[^68Ga]Ga-NODAGA-Collagelin [Comparative Tracer 3]
SUV Kidney [6]: 11.1 | SUV Liver [6]: 0.8

[^68Ga]Ga-NOTA-Collagelin [Comparative Tracer 2]
SUV Kidney [6]: 6.2 | SUV Liver [6]: 0.5 | SUV Kidney [5]: 10

From patent publication US20230295227A1, “COMPOUNDS FOR USE IN DIAGNOSIS AND/OR MONITORING OF FIBROSIS” (ANTAROS TRACER AB, priority 2020, published 2023)
